Laboratory results as given in US9561272B2, “Compositions and methods for modulating immune responses” (The University of Queensland, priority 2006, dated 2017).

How the values were obtained:
[1] = Entrapment efficiency of NF-κB inhibitor and antigen in liposomes (% EE); assay type: physicochemical; conditions: EPC liposomes; for entrapment efficiency of NF-κB inhibitor in liposomes: after removal of non-entrapped drug; for entrapment efficiency of protein antigen in liposomes: freeze-thawing cycle repeated 5 times
Experimental: Entrapment efficiency of protein following this process was typically at least 20%, approximately 60% for Bay and greater than 80% for both Quecertin and Curcumin. Empty, NF-κB inhibitor or protein only liposomes were prepared as above, by omitting the relevant bioactive/s. Following removal of non-entrapped NF-κB inhibitor and antigen, the amount of NF-κB inhibitor and antigen entrapped in liposome could be quantified by assay method. The entrapment efficiency was expressed as: [formula] […] The resulting solution was then kept at −20° C. After 30 minutes, the sample was centrifuged at maximum speed at 4° C. for 10 minutes (EBA 12R centrifuge, Hettich Zentrifugen, Germany) to remove precipitated protein. The concentration of Bay 11-7082 in the resulting supernatant was then assayed and calculated based on the established calibration (with consideration to the dilutions performed) (data not shown). […] The concentration of either quercetin or curcumin in the resulting solution was then assayed and calculated based on the established calibration curves (with consideration to the dilutions performed). […] The quantity of model antigen entrapped in liposomes was determined by a standard bicinchoninic acid (BCA) protein assay with slight modification. Briefly, liposomes loaded with OVA or mBSA were lysed using ethanol or iso-propanol at 20-fold dilution, respectively, and then stored at −20° C. After 30 minutes, the sample was centrifuged at maximum speed at 4° C. for 10 minutes (EBA 12R centrifuge, Hettich Zentrifugen, Germany). The supernatant containing lipid and NF-κB inhibitor was discarded. The protein pellet was then placed in an Alpha 2-4 LD Freeze-drier (Alpha 2-4 LD Freeze-drier, Martin Christ, Germany) to remove remaining solvent. One hundred μL of 2.5% w/v sodium dodecyl sulfate (SDS) solution (for OVA) or water (for mBSA) was added to redissolve the protein pellet. SDS was required for aiding to re-dissolve OVA pellet. The resulting protein solution was mixed with 2 mL of BCA solution (Pierce Biotechnology Inc., USA) and incubated at 37° C. for 30 minutes. After incubation, the absorbance of the solution was measured using a Cary 50 UV-VIS spectrophotometer (Varian, Calif., USA) at a wavelength of 562 nm. The concentration of OVA and mBSA was calculated on the basis of calibration curves established using a series of known concentrations of either OVA or mBSA solution ranging from 0.25 mg/mL to 2 mg/mL.

[2] = cited from earlier work
[3] = tested on: NF-κB; conditions: Table 3, miscellaneous inhibitors of NF-κB; step of NF-κB function inhibited, per the cited reference; cited from earlier work
[4] = previous experiment, thin film method without freeze-thawing, same EPC concentration (Copland 2003); cited from earlier work

| Molecule | Effect or point of inhibition [3] | other results |
| --- | --- | --- |
| Cc1ccc(S(=O)(=O)/C=C/C#N)cc1 [Bay 11-7082, E3((4-methylphenyl)-sulfonyl)-2-propenenitrile, reference compound] |  | entrapment efficiency of NF-κB inhibitor in liposomes [1]: around 60%; entrapment efficiency of NF-κB inhibitor in liposomes ([1]; listed as Bay): approximately 60%; log P [2]: 1.63 |
| methylated bovine serum albumin [mBSA] |  | entrapment efficiency of protein antigen in liposomes [1]: approximately 25% |
| Siah2 (protein, UniProt O43255 1-324, looked up) E3 ubiquitin-protein ligase …: MSRPSSTGPSANKPCSKQPPPQPQHTPSPAAPPAAATISAAGPGSSAVPAAAAVISGPGGGGGAGPVSPQHHELTSLFECPVCFDYVLPPILQCQAGHLVCNQCRQKLSCCPTCRGALTPSIRNLAMEKVASAVLFPCKYATTGCSLTLHHTEKPEHEDICEYRPYSCPCPGASCKWQGSLEAVMSHLMHAHKSITTLQGEDIVFLATDINLPGAVDWVMMQSCFGHHFMLVLEKQEKYEGHQQFFAIVLLIGTRKQAENFAYRLELNGNRRRLTWEATPRSIHDGVAAAIMNSDCLVFDTAIAHLFADNGNLGINVTISTCCP | DNA binding |  |
| SIRT1 Deacetylase overexpression (protein, UniProt Q96EB6 2-747, looked up) NAD-dependent protein …: ADEAALALQPGGSPSAAGADREAASSPAGEPLRKRPRRDGPGLERSPGEPGGAAPEREVPAAARGCPGAAAAALWREAEAEAAAAGGEQEAQATAAAGEGDNGPGLQGPSREPPLADNLYDEDDDDEGEEEEEAAAAAIGYRDNLLFGDEIITNGFHSCESDEEDRASHASSSDWTPRPRIGPYTFVQQHLMIGTDPRTILKDLLPETIPPPELDDMTLWQIVINILSEPPKRKKRKDINTIEDAVKLLQECKKIIVLTGAGVSVSCGIPDFRSRDGIYARLAVDFPDLPDPQAMFDIEYFRKDPRPFFKFAKEIYPGQFQPSLCHKFIALSDKEGKLLRNYTQNIDTLEQVAGIQRIIQCHGSFATASCLICKYKVDCEAVRGDIFNQVVPRCPRCPADEPLAIMKPEIVFFGENLPEQFHRAMKYDKDEVDLLIVIGSSLKVRPVALIPSSIPHEVPQILINREPLPHLHFDVELLGDCDVIINELCHRLGGEYAKLCCNPVKLSEITEKPPRTQKELAYLSELPPTPLHVSEDSSSPERTSPPDSSVIVTLLDQAAKSNDDLDVSESKGCMEEKPQEVQTSRNVESIAEQMENPDLKNVGSSTGEKNERTSVAGTVRKCWPNRVAKEQISRRLDGNQYLFLPPNRYIFHGAEVYSDSEDDVLSSSSCGSNSDSGTCQSPSLEEPMEDESEIEEFYNGLEDEPDVPERAGGAGFGTDGDDQEAINEAISVKQEVTDMNYPSNKS | DNA binding |  |
| Secretory leukoprotease inhibitor (SLPI) (protein, UniProt P03973 26-132, looked up) Antileukoproteinase: SGKSFKAGVCPPKKSAQCLRYKKPECQSDWQCPGKKRCCPDTCGIKCLDPVDTPNPTRRKPGKCPVTYGQCLMLNPPNFCEMDGQCKRDLKCCMGMCGKSCVSPVKA | DNA binding |  |
| NRF (NF-κB repression factor) (protein, UniProt O15226 1-690, looked up) NF-kappa-B-repressing factor: MEKILQMAEGIDIGEMPSYDLVLSKPSKGQKRHLSTCDGQNPPKKQAGSKFHARPRFEPVHFVASSSKDERQEDPYGPQTKEVNEQTHFASMPRDIYQDYTQDSFSIQDGNSQYCDSSGFILTKDQPVTANMYFDSGNPAPSTTSQQANSQSTPEPSPSQTFPESVVAEKQYFIEKLTATIWKNLSNPEMTSGSDKINYTYMLTRCIQACKTNPEYIYAPLKEIPPADIPKNKKLLTDGYACEVRCQNIYLTTGYAGSKNGSRDRATELAVKLLQKRIEVRVVRRKFKHTFGEDLVVCQIGMSSYEFPPALKPPEDLVVLGKDASGQPIFNASAKHWTNFVITENANDAIGILNNSASFNKMSIEYKYEMMPNRTWRCRVFLQDHCLAEGYGTKKTSKHAAADEALKILQKTQPTYPSVKSSQCHTGSSPRGSGKKKDIKDLVVYENSSNPVCTLNDTAQFNRMTVEYVYERMTGLRWKCKVILESEVIAEAVGVKKTVKYEAAGEAVKTLKKTQPTVINNLKKGAVEDVISRNEIQGRSAEEAYKQQIKEDNIGNQLLRKMGWTGGGLGKSGEGIREPISVKEQHKREGLGLDVERVNKIAKRDIEQIIRNYARSESHTDLTFSRELTNDERKQIHQIAQKYGLKSKSHGVGHDRYLVVGRKRRKEDLLDQLKQEGQVGHYELVMPQAN | Transactivation |  |
| ovalbumin (protein, UniProt P01012 2-386, looked up, model antigen) Ovalbumin: GSIGAASMEFCFDVFKELKVHHANENIFYCPIAIMSALAMVYLGAKDSTRTQINKVVRFDKLPGFGDSIEAQCGTSVNVHSSLRDILNQITKPNDVYSFSLASRLYAEERYPILPEYLQCVKELYRGGLEPINFQTAADQARELINSWVESQTNGIIRNVLQPSSVDSQTAMVLVNAIVFKGLWEKAFKDEDTQAMPFRVTEQESKPVQMMYQIGLFRVASMASEKMKILELPFASGTMSMLVLLPDEVSGLEQLESIINFEKLTEWTSSNVMEERKIKVYLPRMKMEEKYNLTSVLMAMGITDVFSSSANLSGISSAESLKISQAVHAAHAEINEAGREVVGSAEAGVDAASVSEEFRADHPFLFCIKHIATNAVLFFGRCVSP |  | entrapment efficiency of protein antigen in liposomes [1]: ~20% |
| FITC-OVA: fluorescein isothiocyanate conjugated to ovalbumin (conjugate, UniProt P01012 2-386, looked up, FITC label, fluorescein isothiocyanate conjugated to ovalbumin) Ovalbumin: GSIGAASMEFCFDVFKELKVHHANENIFYCPIAIMSALAMVYLGAKDSTRTQINKVVRFDKLPGFGDSIEAQCGTSVNVHSSLRDILNQITKPNDVYSFSLASRLYAEERYPILPEYLQCVKELYRGGLEPINFQTAADQARELINSWVESQTNGIIRNVLQPSSVDSQTAMVLVNAIVFKGLWEKAFKDEDTQAMPFRVTEQESKPVQMMYQIGLFRVASMASEKMKILELPFASGTMSMLVLLPDEVSGLEQLESIINFEKLTEWTSSNVMEERKIKVYLPRMKMEEKYNLTSVLMAMGITDVFSSSANLSGISSAESLKISQAVHAAHAEINEAGREVVGSAEAGVDAASVSEEFRADHPFLFCIKHIATNAVLFFGRCVSP |  | entrapment efficiency of FITC-OVA in liposomes [4]: less than 5% |
| Uteroglobin (protein, UniProt P11684 22-91, looked up) Uteroglobin: EICPSFQRVIETLLMDTPSSYEAAMELFSPDQDMREAGAQLKKLVDTLPQKPRESIIKLMEKIAQSSLCN | DNA binding |  |
| PIAS3 (protein, UniProt Q9Y6X2 1-628, looked up) E3 SUMO-protein ligase PIAS3: MAELGELKHMVMSFRVSELQVLLGFAGRNKSGRKHELLAKALHLLKSSCAPSVQMKIKELYRRRFPRKTLGPSDLSLLSLPPGTSPVGSPGPLAPIPPTLLAPGTLLGPKREVDMHPPLPQPVHPDVTMKPLPFYEVYGELIRPTTLASTSSQRFEEAHFTFALTPQQVQQILTSREVLPGAKCDYTIQVQLRFCLCETSCPQEDYFPPNLFVKVNGKLCPLPGYLPPTKNGAEPKRPSRPINITPLARLSATVPNTIVVNWSSEFGRNYSLSVYLVRQLTAGTLLQKLRAKGIRNPDHSRALIKEKLTADPDSEVATTSLRVSLMCPLGKMRLTVPCRALTCAHLQSFDAALYLQMNEKKPTWTCPVCDKKAPYESLIIDGLFMEILSSCSDCDEIQFMEDGSWCPMKPKKEASEVCPPPGYGLDGLQYSPVQGGDPSENKKKVEVIDLTIESSSDEEDLPPTKKHCSVTSAAIPALPGSKGVLTSGHQPSSVLRSPAMGTLGGDFLSSLPLHEYPPAFPLGADIQGLDLFSFLQTESQHYGPSVITSLDEQDALGHFFQYRGTPSHFLGPLAPTLGSSHCSATPAPPPGRVSSIVAPGGALREGHGGPLPSGPSLTGCRSDIISLD | Transactivation |  |
